The assay addresses T1, Human LILRB3 (human, UniProt O75022 24-631).
T1 construct: whole, on cells; Endogenous receptor on primary human PBMCs and whole blood cells, not a recombinant construct; also called CD85A; ILT5
Description: flow cytometry; human PBMCs and fresh whole blood stained with 3A3 and gated on cell subsets. The procedure:
LILRB3 surface expression was measured on various hematopoietic subsets in the form of two-dimensional flow cytometry (FCM) representations called quantile contour plots (probability plots). Peripheral blood mononuclear cells (PBMCs) from a healthy human donor were stained with the LILRB3 3A3 antibody as well as antibodies specific for the indicated cell subset. FIG. 1A plots depict LILRB3 expression by gated CD3+CD4+T cells, CD3+CD8+ T cells or CD11b+ monocytes. In FIG. 1B, fresh whole blood from a healthy human donor was stained as in FIG. 1A. Plots depict LILRB3 expression by gated CD3+CD4+ T cells, CD3+CD8+ T cells, CD11b+ monocytes or CD11b+ granulocytes. Percentages of gated cells and of LILRB3+ cells within the gated population are depicted inside the plots (first and second numbers, respectively). […] Specificity of the LILRB3 staining was determined by staining all of the above cell subsets with an IgG1 isotype control antibody. Data are representative of several independent experiments utilizing different human blood samples.
(In general: A flow cytometer gives signals particle by particle.)

T1 sequence (O75022 24-631): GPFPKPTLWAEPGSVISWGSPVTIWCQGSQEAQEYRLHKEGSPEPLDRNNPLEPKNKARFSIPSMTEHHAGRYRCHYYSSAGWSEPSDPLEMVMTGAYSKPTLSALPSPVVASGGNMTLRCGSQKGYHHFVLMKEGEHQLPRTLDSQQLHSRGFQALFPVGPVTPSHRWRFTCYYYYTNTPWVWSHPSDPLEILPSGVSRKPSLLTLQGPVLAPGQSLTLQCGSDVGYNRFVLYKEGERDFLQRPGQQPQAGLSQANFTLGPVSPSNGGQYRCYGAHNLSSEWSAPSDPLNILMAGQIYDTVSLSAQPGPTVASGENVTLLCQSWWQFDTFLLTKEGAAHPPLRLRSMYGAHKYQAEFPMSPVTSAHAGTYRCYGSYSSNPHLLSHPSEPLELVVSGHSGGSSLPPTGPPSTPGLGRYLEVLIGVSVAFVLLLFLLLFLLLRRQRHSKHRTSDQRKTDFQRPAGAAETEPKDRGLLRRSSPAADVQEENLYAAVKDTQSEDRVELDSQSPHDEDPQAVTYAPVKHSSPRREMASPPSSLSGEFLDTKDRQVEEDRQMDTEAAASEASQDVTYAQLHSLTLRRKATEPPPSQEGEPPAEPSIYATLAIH

B1: LILRB3 3A3 antibody (antibody, V domains shown)
VH: QVQLQQSRTELMKPGASVKLSCKATGYTFTGYWIEWVKQRPGHGLEWIGEILPGSTNINYNERFKGKATITADTSSNTAYMQLSSLTTEDSAIYYCARWASVVVGDYWGQGATLTVSS
VL: QIVLTQSPAIMSASLGERVTMTCTASSSVSSSYLHWYQQKPGSSPKLWIYSTSNLASGVPARFSGSGSGTSYSLTISSMEAEDAATYYCHQYHRSPPTFGGGTKLEIKR
notes: the entries also seem to hold an N-terminal leader and part of the constant region
Take B1: the binding result was “binds”.

Values taken from US20220089723A1 (UNIVERSITY HEALTH NETWORK, published 2022).
